Results on 10 variants are retold here after the supplement of paper PMC10266784.

To fix the notation:
B1: library; numbered along this chain (parent)
chain: MAAAAAAAAEQQSSNGPVKKSMREKAVERRSVNKEHNSNFKAGYIPIDEDRLHKTGLRGRKGNLAICVIILLFILAVINLIITLVIWAVIRIGPNGCDSMEFHESGLLRFKQVSDMGVIHPLYKSTVGGRRNENLVITGNNQPIVFQQGTTKLSVENNKTSITSDIGMQFFDPRTQNILFSTDYETHEFHLPSGVKSLNVQKASTERITSNATSDLNIKVDGRAIVRGNEGVFIMGKTIEFHMGGNMELKAENSIILNGSVMVSTTRLPSSSSGDQLGSGDWVRYKLCMCADGTLFKVQVTSQNMGCQISDNPCGNTH

Variants of B1 are the subject of this series. Kind of series: SGCB cell-surface expression functional score (HA stain, bin4 vs bin1, normalised to synonymous) (log10 ratio); higher = more cell-surface SGCB (functional). In outline: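 Using lentivirus at MOI <0.1, HA-tagged, YFP-fused human beta-sarcoglycan codon-saturation libraries were put into HEK293 cells with stable alpha-, gamma- and delta-sarcoglycan expression, in duplicate transductions. YFP-positive cells were collected by sorting 72 hours later, grown 5–7 days, stained on ice with Alexa Fluor 647 anti-HA, fixed, sorted into four 5% intensity bins and amplicon-sequenced. The functional score takes the median, across codons and transductions, of the log ratio of highest-bin to lowest-bin variant frequency. Within each section, synonymous variants were scaled to mean 0, SD 0.5.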
In the case of MAAAAAAAAEQQSSNGPVKKSMREKAVERRSVNKEHNSNFKAGYIPIDEDRLHKTGLRGRKGNLAICVIILLFILAVINLIITLVIWAVIRIGPNGCDSMEFHESGLLRFKQVSDMGVIHPLYKSTVGGRRNENLVITGNNQPIVFQQGTTKLSVENNKTSITSDIGMQFFDPRTQNILFSTDYETHEFHLPSGVKSLNVQKASTERITSNATSDLNIKVDGRAIVRGNEGVFIMGKTIEFHMGGNMELKAENSIILNGSVMVSTTRLPSSSSGDQLGSGDWVRYKLCMCADGTLFKVQVTSQNMPCQISDNPCGNTH [G306P], the “SGCB cell-surface expression functional score (log10)” value was -1.24. Regarding MAAAAAAAAEQQSSNGPVKKSMREKAVERRSVNKEHNSNFKAGYIPIDEDRLHKTGLRGRKGNLAICVIILLFILAVINLIITLVIWAVIRIGPNGCDSMEFHESGLLRFKQVSDMGVIHPLYKSTVGGRRNENLVITGNNQPIVFQQGTTKLSVENNKTSITSDIGMQFFDPRTQNILFSTDYETHEFHLPSGVKSLNVQKASTERITSNATSDLNIKVDGRAIVRGNEGVFIMGKTIEFHMGGNMELKAENSIILNGSVMVSTTRLPSSSSGDQLGSGDWVRYKLCMCADGTLFKVQVTSQNMFCQISDNPCGNTH [G306F], the “SGCB cell-surface expression functional score (log10)” value was -0.43. Next, MAAAAAAAAEQQSSNGPVKKSMREKAVERRSVNKEHNSNFKAGYIPIDEDRLHKTGLRGRKGNLAICVIILLFILAVINLIITLVIWAVIRIGPNGCDSMEFHESGLLRFKQVSDMGVIHPLYKSTVGGRRNENLVITGNNQPIVFQQGTTKLSVENNKTSITSDIGMQFFDPRTQNILFSTDYETHEFHLPSGVKSLNVQKASTERITSNATSDLNIKVDGRAIVRGNEGVFIMGKTIEFHMGGNMELKAENSIILNGSVMVSTTRLPSSSSGDQLGSGDWVRYKLCMCADGTLFKVQVTSQNMRCQISDNPCGNTH [G306R]: -0.84; MAAAAAAAAEQQSSNGPVKKSMREKAVERRSVNKEHNSNFKAGYIPIDEDRLHKTGLRGRKGNLAICVIILLFILAVINLIITLVIWAVIRIGPNGCDSMEFHESGLLRFKQVSDMGVIHPLYKSTVGGRRNENLVITGNNQPIVFQQGTTKLSVENNKTSITSDIGMQFFDPRTQNILFSTDYETHEFHLPSGVKSLNVQKASTERITSNATSDLNIKVDGRAIVRGNEGVFIMGKTIEFHMGGNMELKAENSIILNGSVMVSTTRLPSSSSGDQLGSGDWVRYKLCMCADGTLFKVQVTSQNMDCQISDNPCGNTH [G306D]: -0.69. For the variant MAAAAAAAAEQQSSNGPVKKSMREKAVERRSVNKEHNSNFKAGYIPIDEDRLHKTGLRGRKGNLAICVIILLFILAVINLIITLVIWAVIRIGPNGCDSMEFHESGLLRFKQVSDMGVIHPLYKSTVGGRRNENLVITGNNQPIVFQQGTTKLSVENNKTSITSDIGMQFFDPRTQNILFSTDYETHEFHLPSGVKSLNVQKASTERITSNATSDLNIKVDGRAIVRGNEGVFIMGKTIEFHMGGNMELKAENSIILNGSVMVSTTRLPSSSSGDQLGSGDWVRYKLCMCADGTLFKVQVTSQNMICQISDNPCGNTH [G306I], the “SGCB cell-surface expression functional score (log10)” value was -0.62. MAAAAAAAAEQQSSNGPVKKSMREKAVERRSVNKEHNSNFKAGYIPIDEDRLHKTGLRGRKGNLAICVIILLFILAVINLIITLVIWAVIRIGPNGCDSMEFHESGLLRFKQVSDMGVIHPLYKSTVGGRRNENLVITGNNQPIVFQQGTTKLSVENNKTSITSDIGMQFFDPRTQNILFSTDYETHEFHLPSGVKSLNVQKASTERITSNATSDLNIKVDGRAIVRGNEGVFIMGKTIEFHMGGNMELKAENSIILNGSVMVSTTRLPSSSSGDQLGSGDWVRYKLCMCADGTLFKVQVTSQNMKCQISDNPCGNTH [G306K]: the “SGCB cell-surface expression functional score (log10)” value is -0.17.

As to MAAAAAAAAEQQSSNGPVKKSMREKAVERRSVNKEHNSNFKAGYIPIDEDRLHKTGLRGRKGNLAICVIILLFILAVINLIITLVIWAVIRIGPNGCDSMEFHESGLLRFKQVSDMGVIHPLYKSTVGGRRNENLVITGNNQPIVFQQGTTKLSVENNKTSITSDIGMQFFDPRTQNILFSTDYETHEFHLPSGVKSLNVQKASTERITSNATSDLNIKVDGRAIVRGNEGVFIMGKTIEFHMGGNMELKAENSIILNGSVMVSTTRLPSSSSGDQLGSGDWVRYKLCMCADGTLFKVQVTSQNMMCQISDNPCGNTH [G306M], the “SGCB cell-surface expression functional score (log10)” value is -1.83. The value for MAAAAAAAAEQQSSNGPVKKSMREKAVERRSVNKEHNSNFKAGYIPIDEDRLHKTGLRGRKGNLAICVIILLFILAVINLIITLVIWAVIRIGPNGCDSMEFHESGLLRFKQVSDMGVIHPLYKSTVGGRRNENLVITGNNQPIVFQQGTTKLSVENNKTSITSDIGMQFFDPRTQNILFSTDYETHEFHLPSGVKSLNVQKASTERITSNATSDLNIKVDGRAIVRGNEGVFIMGKTIEFHMGGNMELKAENSIILNGSVMVSTTRLPSSSSGDQLGSGDWVRYKLCMCADGTLFKVQVTSQNMCCQISDNPCGNTH [G306C] was -0.99; that for MAAAAAAAAEQQSSNGPVKKSMREKAVERRSVNKEHNSNFKAGYIPIDEDRLHKTGLRGRKGNLAICVIILLFILAVINLIITLVIWAVIRIGPNGCDSMEFHESGLLRFKQVSDMGVIHPLYKSTVGGRRNENLVITGNNQPIVFQQGTTKLSVENNKTSITSDIGMQFFDPRTQNILFSTDYETHEFHLPSGVKSLNVQKASTERITSNATSDLNIKVDGRAIVRGNEGVFIMGKTIEFHMGGNMELKAENSIILNGSVMVSTTRLPSSSSGDQLGSGDWVRYKLCMCADGTLFKVQVTSQNMQCQISDNPCGNTH [G306Q] was -0.33; that for MAAAAAAAAEQQSSNGPVKKSMREKAVERRSVNKEHNSNFKAGYIPIDEDRLHKTGLRGRKGNLAICVIILLFILAVINLIITLVIWAVIRIGPNGCDSMEFHESGLLRFKQVSDMGVIHPLYKSTVGGRRNENLVITGNNQPIVFQQGTTKLSVENNKTSITSDIGMQFFDPRTQNILFSTDYETHEFHLPSGVKSLNVQKASTERITSNATSDLNIKVDGRAIVRGNEGVFIMGKTIEFHMGGNMELKAENSIILNGSVMVSTTRLPSSSSGDQLGSGDWVRYKLCMCADGTLFKVQVTSQNMACQISDNPCGNTH [G306A] was -0.83.
